This data set addresses recombinant RhoA (UniProt P61586).

Chain of recombinant RhoA (P61586 whole entry): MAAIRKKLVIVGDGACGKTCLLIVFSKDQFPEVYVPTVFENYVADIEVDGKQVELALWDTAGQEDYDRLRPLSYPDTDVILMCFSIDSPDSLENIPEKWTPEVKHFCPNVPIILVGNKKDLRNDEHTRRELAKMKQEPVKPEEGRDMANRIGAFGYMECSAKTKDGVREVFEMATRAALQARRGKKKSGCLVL

Take T7-tagged TRIO(G2699V): the “RhoGEF activity (mant-GTP exchange assay)” value is recorded as “the TRIO(G2699V) mutant was more capable of activating Rho than TRIO(WT)”.

For the origin of these results see US20160103133.
